Test results published in US8455427B2, “Methods of modifying insulin signaling using biliverdin reductase” (University of Rochester, priority 2005, dated 2013).
Positions count from the first letter of the chain named.

Key:
[1] = target: T1, insulin receptor tyrosine kinase (IRK) (Homo sapiens, UniProt P06213); test: BVR phosphorylation by the insulin receptor tyrosine kinase (IRK), in vitro [32P]-ATP assay; format: biochemical; settings: for decrease of BVR phosphorylation by IRK caused by point mutation / BVR phosphorylation by IRK (tyrosine mutants, in words): mutant vs wtBVR, IRK 2 h at 30° C.
T1 construct: the 48 kDa cytoplasmic domain of the β-subunit of IRK; purchased Biomol International (Plymouth, Pa.)
Description: BVR phosphoiylation by the insulin receptor tyrosine kinase (IRK): Phosphorylation of BVR by IRK was examined using GST-HBVR fusion protein and the 48 kDa cytoplasmic domain of the β-subunit of IRK. BVR (5 μg) was incubated in 50 μl of IRK kinase buffer containing 50 mM HEPES (pH 8.0), 20 mM MgCl2, 1 mM DTT in the presence of 0.05 μg IRK and 10 μM ATP labeled with 10 μCi [γ-^32P]-ATP. The reaction was started with the addition of labeled ATP and incubated for 2-4 h. Reactions were terminated by addition of Laemmli sample buffer and boiled for 3 min. Samples were subjected to 8% SDS-PAGE and transferred to PVDF membranes for autoradiography.

human BVR [2] = target: T2, human BVR (Homo sapiens, UniProt P53004, A154S/E160D/G155D); test: BVR autophosphorylation; format: biochemical; settings: pH 8.4; 20 mM Zn acetate, also with Mn+2
T2 construct: made in house
T2 sequence (P53004 1-296 A154S/G155D/E160D): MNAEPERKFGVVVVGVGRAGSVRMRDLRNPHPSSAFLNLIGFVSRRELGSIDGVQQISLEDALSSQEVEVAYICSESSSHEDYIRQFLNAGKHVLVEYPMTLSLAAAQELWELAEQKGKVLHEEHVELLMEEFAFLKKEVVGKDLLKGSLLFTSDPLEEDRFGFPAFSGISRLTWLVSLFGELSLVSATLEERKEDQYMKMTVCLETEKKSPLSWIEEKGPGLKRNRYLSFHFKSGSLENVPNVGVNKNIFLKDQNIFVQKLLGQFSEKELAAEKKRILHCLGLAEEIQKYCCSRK
Description: (§1) BVR autophosphorylation and kinase activity: To detect autophosphorylation of BVR, GST-hBVR of wild type (wt) and mutant variants were incubated in 50 mM HEPES buffer (pH 8.4) in the presence of 30 mM MnCl2 and 1 mM DTT for 2 h at 30° C. The reaction was started with the addition of 10 μM ATP labeled with 10 μCi [γ-^32P]-ATP and was stopped with the addition of Laemmli sample buffer. Samples were boiled for 3 min and applied to a 8% SDS-PAGE gels, transferred to a PVDF membrane, and then visualized by autoradiography. To measure kinase activity, GST-BVR (5 μg) was incubated in 50 μl kinase buffer containing 50 mM HEPES buffer (pH 8.4), 20 mM MgCl2, 30 mM MnCl2, 1 mM DTT and 10 μM ATP labeled with 10 μCi [γ-^32P]-ATP in the presence of 5 μg substrates: IRS-1 or Raytide or poly glu/tyr (4:1) for 2 h at 30° C. The reaction was started with the addition of ATP and terminated by adding 120 μl 10% H3PO4. 100 μl aliquots were directly transferred to P81 Whatman filters which were subsequently washed extensively in 0.75% phosphoric acid at room temperature. Finally, the filters were submerged in acetone for 5 min, dried, and retained counts were measured using a Beckman LS 6500 liquid scintillation counter (Beckman Coulter, Fullerton, Calif.).

human BVR [3] = target: T2, human BVR; test: BVR kinase activity on substrates (IRS-1, IRS-1 peptides, Raytide, poly glu/tyr); format: biochemical; settings: peptide as substrate of BVR, [γ-32P]-ATP
Description: as §1

BVR in 293A cells [4] = test: BVR reductase activity in insulin-treated 293A cells; format: cell-based, human; settings: insulin 50 nM
Description: (§2) Cell culture and transfection and infection of 293A: 293A cells were grown in 10 cm-plates with Dulbecco's Modified Eagle Medium (DMEM) (Invitrogen, Carlsbad, Calif.) containing 10% fetal bovine serum and 1% penicillin-G/streptomycin for 24 h or until a confluency of 70% was reached. Cells were subsequently transfected with 4 μg of pcDNA3 mutant BVR Y^198 using Transfectin Lipid Reagent (Bio-Rad, Hercules, Calif.), according to the manufacturer's procedure and incubated for 48 h at 37° C. In addition, non-transfected cells were infected with pSuper-Retro-siBVR for 24 h in the presence of 4 μg/ml polybrene. Cells were starved in serum-free DMEM 16 h prior to insulin treatment (50 nM).
Measurement of BVR Reductase Activity: 293A cells treated with insulin were lysed in buffer containing a protease inhibitor cocktail and phosphatase inhibitors (10 mM NaF, […]). BVR activity was measured at pH 6.7 using NADH as the cofactor as described previously (Huang et al., J. Biol. Chem. 264:7844-9 (1989), which is hereby incorporated by reference in its entirety). The rate of conversion of biliverdin to bilirubin was determined as the increase in absorbance at 450 nm at 25° C. Specific activity is expressed as μmol of bilirubin/min/mg of protein.

BVR in 293A cells [5] = test: BVR tyrosine phosphorylation in insulin-treated 293A cells (immunoprecipitation and immunoblotting); format: cell-based, human; settings: within 8 min after insulin treatment
Description: as §2
Immunoprecipitation and immunoblotting: 293A Cells were plated in 10 cm plates and transfected with appropriate plasmids. Prior to collection, cells were washed twice with cold PBS and lysed in 300 μl cold modified RIPA buffer containing 50 mM Tris (pH7.4), 75 mM NaCl, 2 mM EDTA, 2 mM EGTA, 10 mM NaF, 1% Nonidet P-40, 0.5% sodium deoxycholate, 0.5% sodium vanadate, 1 mM PMSF, 10 μg/ml aprotinin, 1 mM benzamidine, 10 μg/ml leupeptine, and 10 μg/ml pepstatin. Cells sonicated (2×3 sec each) and centrifuged at 10,000×g for 15 min. Protein concentration was determined by Bradford assay (Bio-Rad, Hercules, Calif.). […]

human BVR [6] = test: BVR autophosphorylation; format: biochemical; settings: pH 8.4, 30 mM MnCl2, 2 h, 30° C.
Description: as §1

human BVR [7] = test: BVR kinase activity on substrates (IRS-1, IRS-1 peptides, Raytide, poly glu/tyr); format: biochemical; settings: protein tested as kinase for IRS; Mn+2 and Mg+2 present
Description: as §1

T1 sequence (P06213 980-1382 limits assumed): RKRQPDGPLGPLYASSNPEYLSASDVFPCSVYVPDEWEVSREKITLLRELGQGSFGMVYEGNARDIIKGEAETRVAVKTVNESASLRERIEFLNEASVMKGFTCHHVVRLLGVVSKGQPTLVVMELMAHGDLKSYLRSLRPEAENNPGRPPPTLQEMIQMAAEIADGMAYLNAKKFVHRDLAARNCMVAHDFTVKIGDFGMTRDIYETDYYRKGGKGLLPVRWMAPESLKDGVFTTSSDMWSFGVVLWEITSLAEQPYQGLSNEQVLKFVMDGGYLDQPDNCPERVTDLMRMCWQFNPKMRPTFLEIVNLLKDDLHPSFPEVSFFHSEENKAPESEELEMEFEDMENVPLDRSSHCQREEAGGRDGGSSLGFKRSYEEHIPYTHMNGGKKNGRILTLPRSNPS

`O=C(O)CN(CCN(CC(=O)O)CC(=O)O)CC(=O)O` [EDTA, reference compound] was tested, and the “effect on phosphorylation of BVR by IRK” value ([1]; 50 mM EDTA (pH 8.0), 30° C., 2 h, anti-phosphotyrosine blot) was “abolished phosphorylation of BVR by IRK”.

With `O=c1c(-c2ccc(O)cc2)coc2cc(O)cc(O)c12` [Genestein, reference compound] the “effect on BVR phosphorylation mediated by IRK” value ([1]; genestein 200 μM, HEPES pH 8.0, 20 mM MgCl2) was “significantly inhibited BVR phosphorylation mediated by IRK”.

In the case of `CC(=O)[O-].CC(=O)[O-].[Zn+2]` [Zn^+2, Zn acetate, reference compound], the “effect of metal ion on BVR autophosphorylation” value (human BVR [2]) is reported as “inhibitory to BVR autophosphorylation”.

“Arg-Thr-Glu-Ser^307-Ile-Thr-Ala-Thr-Ser^312-Pro-Ala-Ser^315-Met-Val-Gly-Gly-Lys-Pro (RTESITATSPASMVGGKP; peptide fragment of Homo sapiens Insulin Receptor Substrate (Peptide 2)) [IRS-1 peptide (#2), reference compound]” was tested, and the “phosphorylation of IRS-1 peptide by BVR” value (human BVR [3]) was 1198±230 cpm.

“Lys-Lys-His-Ala-Asp-Asp-Gly-Ala-Met-Pro-Met-Ser^312-Pro-Gly-Val-Ala (KKHADDGAMPMSPGVA; mutant peptide fragment of Homo sapiens Insulin Receptor Substrate (Peptide 1)) [mutant IRS-1 peptide (#1), reference compound]” was tested, and the “phosphorylation of IRS-1 peptide by BVR” value (human BVR [3]) was 1049±78 cpm.

In the case of “insulin: Human insulin purchased from Sigma-Aldrich”, the “increase in BVR reductase activity” value (BVR in 293A cells [4]; 1 h after treatment) is reported as 2 fold, the “BVR reductase activity, later time” value (BVR in 293A cells [4]; 6 h after treatment) is reported as “gradually returned to basal level” and the BVR tyrosine phosphorylation (BVR in 293A cells [5]) is reported as “dramatic increase in phosphorylation”.

B1: Y^228: human BVR point mutant, NRYLS to NRFLS (protein, UniProt P53004 3-296, looked up, variant Y228F)
Biliverdin reductase A: AEPERKFGVVVVGVGRAGSVRMRDLRNPHPSSAFLNLIGFVSRRELGSIDGVQQISLEDALSSQEVEVAYICSESSSHEDYIRQFLNAGKHVLVEYPMTLSLAAAQELWELAEQKGKVLHEEHVELLMEEFAFLKKEVVGKDLLKGSLLFTAGPLEEERFGFPAFSGISRLTWLVSLFGELSLVSATLEERKEDQYMKMTVCLETEKKSPLSWIEEKGPGLKRNRFLSFHFKSGSLENVPNVGVNKNIFLKDQNIFVQKLLGQFSEKELAAEKKRILHCLGLAEEIQKYCCSRK
With B1 the “decrease of BVR phosphorylation by IRK caused by point mutation” value [1] was 40% and the “autophosphorylation of BVR mutants” value (human BVR [6]) was “did not result in significant changes in autophosphorylation of BVR”.

B2: Y^291: human BVR point mutant, QKYCC to QKFCC (protein, UniProt P53004 3-296, looked up, variant Y291F)
Biliverdin reductase A: B1 Biliverdin reductase A with F226Y, Y289F
With B2 the “decrease of BVR phosphorylation by IRK caused by point mutation” value [1] was 49% and the “autophosphorylation of BVR mutants” value (human BVR [6]) was “did not result in significant changes in autophosphorylation of BVR”.

B3: Y^198 plus Y^228: human BVR double mutant, DQFMK and NRFLS (protein, UniProt P53004 3-296, looked up, variant Y198F Y228F)
Biliverdin reductase A: B1 Biliverdin reductase A with Y196F
In the case of B3, the “BVR phosphorylation by IRK (tyrosine mutants, in words)” value [1] is reported as “little or no phosphorylation was detected”.

B4: Y^198 plus Y^291: human BVR double mutant, DQFMK and QKFCC (protein, UniProt P53004 3-296, looked up, variant Y198F Y291F)
Biliverdin reductase A: B1 Biliverdin reductase A with Y196F, F226Y, Y289F
B4 was tested, and the “BVR phosphorylation by IRK (tyrosine mutants, in words)” value [1] was “little or no phosphorylation was detected”.

B5: T^202: human BVR point mutant, KMTVC to KMAVC (protein, UniProt P53004 3-296, looked up, variant T202A)
Biliverdin reductase A: B1 Biliverdin reductase A with T200A, F226Y
B5 was tested, and the “autophosphorylation of BVR mutants” value (human BVR [6]) was “found to be a target of autophosphorylation”.

B6: HO-1: heme oxygenase isozyme, used as a control for kinase activity (protein, UniProt P09601 1-288, looked up)
Heme oxygenase 1: MERPQPDSMPQDLSEALKEATKEVHTQAENAEFMRNFQKGQVTRDGFKLVMASLYHIYVALEEEIERNKESPVFAPVYFPEELHRKAALEQDLAFWYGPRWQEVIPYTPAMQRYVKRLHEVGRTEPELLVAHAYTRYLGDLSGGQVLKKIAQKALDLPSSGEGLAFFTFPNIASATKFKQLYRSRMNSLEMTPAVRQRVIEEAKTAFLLNIQLFEELQELLTHDTKDQSPSRAPGLRQRASNKVQDSAPVETPRGKPPLNTRSQAPLLRWVLTLSFLVATVAVGLYAM
In the case of B6, the IRS phosphorylation (human BVR [7]) is reported as “did not significantly effect IRS phosphorylation”.

B7: HO-2: heme oxygenase isozyme, used as a control for kinase activity (protein, UniProt P30519 2-316, looked up)
Heme oxygenase 2: SAEVETSEGVDESEKKNSGALEKENQMRMADLSELLKEGTKEAHDRAENTQFVKDFLKGNIKKELFKLATTALYFTYSALEEEMERNKDHPAFAPLYFPMELHRKEALTKDMEYFFGENWEEQVQCPKAAQKYVERIHYIGQNEPELLVAHAYTRYMGDLSGGQVLKKVAQRALKLPSTGEGTQFYLFENVDNAQQFKQLYRARMNALDLNMKTKERIVEEANKAFEYNMQIFNELDQAGSTLARETLEDGFPVHDGKGDMRKCPFYAAEQDKGALEGSSCPFRTAMAVLRKPSLQFILAAGVALAAGLLAWYYM
B7 was tested, and the IRS phosphorylation (human BVR [7]) was “did not significantly effect IRS phosphorylation”.

B8: G^17: human BVR point mutant in ATP binding domain, GVGRA to GVARA (protein, UniProt P53004 3-296, looked up, variant G17A)
Biliverdin reductase A: B1 Biliverdin reductase A with G15A, F226Y
In the case of B8, the IRS phosphorylation (human BVR [7]) is reported as “for the most part, prevented IRS phosphorylation by BVR”.
